Measurements reported in publication PMC4683529, “Cancer associated missense mutations in BAP1 catalytic domain induce amyloidogenic aggregation: A new insight in enzymatic inactivation” (Scientific Reports, 2015).

Biological target: the molecule itself
Test: ultracentrifugation of heated protein and dot blot of the pellet with A11 and OC antibodies; 7 uM protein heated at 37 °C for 1 h, then 14 h at 25 °C; 1,00,000 x g for 60 min (2 h for OC)

Row | Protein | binding result
1 | BAP1 catalytic domain (1–240), wild type (domain or fragment, human, UniProt Q92560 1-240, looked up, BRCA1 associated protein 1 (BAP1), human, N-terminal catalytic (UCH) domain, residues 1-240, subcloned into pGEX-6P-1 from Flag-HA-BAP1; also called WT 240; BAP1 (1–240); source: E. coli Rosetta 2, purified (standard GST purification protocol)) MNKGWLELESDPGLFTLLVEDFGVKGVQVEEIYDLQSKCQGPVYGFIFLFKWIEERRSRRKVSTLVDDTSVIDDDIVNNMFFAHQLIPNSCATHALLSVLLNCSSVDLGPTLSRMKDFTKGFSPESKGYAIGNAPELAKAHNSHARPEPRHLPEKQNGLSAVRTMEAFHFVSYVPITGRLFELDGLKVYPIDHGPWGEDEEWTDKARRVIMERIGLATAGEPYHDIRFNLMAVVPDRRIK | binds
2 | BAP1 catalytic domain (1–240) F81V (domain or fragment, human, UniProt Q92560 1-240, looked up, BAP1, human, catalytic domain residues 1-240 with the cancer-associated mutation F81V; source: E. coli Rosetta 2, purified (standard GST purification protocol)) MNKGWLELESDPGLFTLLVEDFGVKGVQVEEIYDLQSKCQGPVYGFIFLFKWIEERRSRRKVSTLVDDTSVIDDDIVNNMVFAHQLIPNSCATHALLSVLLNCSSVDLGPTLSRMKDFTKGFSPESKGYAIGNAPELAKAHNSHARPEPRHLPEKQNGLSAVRTMEAFHFVSYVPITGRLFELDGLKVYPIDHGPWGEDEEWTDKARRVIMERIGLATAGEPYHDIRFNLMAVVPDRRIK | binds
